Measured values reported in patent US20250002594A1 (SHANGHAI EPIMAB BIOTHERAPEUTICS, published 2025).
Changes are numbered by the printed parent chain. One block for each binder: values may come before it.

Tests used:
[1] = target: T1, recombinant cyno CD122 (cynomolgus, UniProt Q38J85 27-239, limits assumed); experiment: GCI (WAVEsystem), FIT-Ig captured by anti-human IgG Fc, antigen in solution
T1 construct: also called cynomolgus CD122
T1 sequence (looked up): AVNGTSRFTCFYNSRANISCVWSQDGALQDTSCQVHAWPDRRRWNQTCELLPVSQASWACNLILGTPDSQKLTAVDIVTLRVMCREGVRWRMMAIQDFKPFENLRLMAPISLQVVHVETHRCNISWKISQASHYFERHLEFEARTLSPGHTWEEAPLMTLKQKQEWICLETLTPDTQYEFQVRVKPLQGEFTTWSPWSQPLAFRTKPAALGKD
Procedure: (§1) Binding affinity and kinetics constants of humanized CD122/CD132 FIT-Ig were determined using a label-free biosensor on WAVEsystem (Creoptix AG, Switzerland) by grating-coupled interferometry (GCI). Briefly, a PCP WAVEchip (Creoptix AG) was pre-immobilized with goat anti-human IgG Fc antibody to a density of 3830 pg/mm² by amine coupling, and used to capture humanized CD122/CD132 FIT-Ig generated from Example 3.2.1 to a density of ˜90 pg/mm², then exposed to recombinant human/cyno CD122 or CD132 serially diluted (3× dilutions from 200 nM to […] for human CD122, human CD132 and cyno CD132, respectively; and from 1000 nM to 1.37 nM for cyno CD122) in 1X HBS-EP+ buffer (Cytiva, Cat No. BR100669) by injection at 60 μL/min for 250s to assess association, followed by 1200s dissociation. After each round of association and dissociation, WAVEchip surface was regenerated by subject to pH 1.5 Glycine-HCl buffer injection at 60 μL/min for 120s. Sensorgrams were recorded at 25° C., the data were analyzed on WAVEcontrol (Creoptix AG) and double referenced by subtracting the signals from blank injections and the reference channel. A Langmuir 1:1 model was used for data fitting.

[2] = target: T2, recombinant cyno CD132 (cynomolgus, UniProt A0A2K5VGJ6 23-262); experiment: as above
T2 construct: also called cynomolgus CD132
T2 sequence: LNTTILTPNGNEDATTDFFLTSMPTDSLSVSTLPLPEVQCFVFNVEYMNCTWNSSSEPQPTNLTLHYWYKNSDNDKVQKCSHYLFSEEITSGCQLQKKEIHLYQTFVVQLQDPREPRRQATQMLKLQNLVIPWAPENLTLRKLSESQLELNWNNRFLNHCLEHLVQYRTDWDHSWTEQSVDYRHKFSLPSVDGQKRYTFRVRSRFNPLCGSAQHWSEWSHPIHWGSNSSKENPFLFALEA
Procedure: as §1

[3] = target: T3, recombinant human CD122 (human, UniProt P14784 27-239, limits assumed); experiment: as above
T3 construct: also called IL-2Rβ
T3 sequence (looked up): T1 sequence (looked up) with R7Q, T66A, A74T, M83L, M92V, K127E, M158L
Procedure: as §1

[4] = target: T4, recombinant human CD132 (human, UniProt P31785 23-262, limits assumed); experiment: as above
T4 construct: also called IL-2Rγ
T4 sequence (looked up): T2 sequence with A14T, T16A, S22T, R141H, S228T
Procedure: as §1

[5] = target: T5, human CD122 on HEK293 cells (human, UniProt P14784 27-551); experiment: Flow cytometry (Median-APC) on HEK293/CD122 cells; the box gives no unit, the axis is Ab conc.(nM)
T5 construct: whole, on cells; also called cell surface CD122
T5 sequence (looked up): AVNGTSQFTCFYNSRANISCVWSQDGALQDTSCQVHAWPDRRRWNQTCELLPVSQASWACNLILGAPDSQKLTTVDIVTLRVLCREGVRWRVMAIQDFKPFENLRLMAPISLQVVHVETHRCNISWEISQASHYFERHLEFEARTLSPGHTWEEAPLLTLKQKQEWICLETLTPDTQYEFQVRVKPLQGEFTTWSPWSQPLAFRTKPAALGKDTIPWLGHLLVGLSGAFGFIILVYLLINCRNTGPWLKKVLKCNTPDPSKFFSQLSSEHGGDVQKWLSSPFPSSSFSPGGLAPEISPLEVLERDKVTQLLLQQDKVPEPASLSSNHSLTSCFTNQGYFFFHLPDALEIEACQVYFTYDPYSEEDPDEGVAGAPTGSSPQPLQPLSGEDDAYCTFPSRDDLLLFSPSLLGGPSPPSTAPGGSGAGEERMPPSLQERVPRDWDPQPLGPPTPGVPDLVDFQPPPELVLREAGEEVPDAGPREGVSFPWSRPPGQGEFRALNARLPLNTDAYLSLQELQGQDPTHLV
Procedure: (§2) Briefly, a 96-well plate was seeded with 3×10⁵ cells each well, centrifuged at 400 g for 5 minutes and supernatants discarded, then added 100 μl of antibody (5× serial dilutions, 0.0064 to 100 nM) each well and gently mixed. After 60 minutes of incubation at 4° C., plates were washed several times to remove excess antibodies. Secondary fluorochrome-conjugated goat anti-human IgG antibody (Jackson Immunoresearch, Cat No. 109-606-098) was then added and incubated with cells at 4° C. for 20 minutes. After another round of centrifugation and washing, cells were resuspended in assay buffer (1X PBS containing 2% FBS) for reading on a flow-cytometer. Median Fluorescence Intensity (MFI) readouts were plotted against antibody concentration and analyzed with GraphPad Prism 6.0 software.

[6] = target: T6, human CD132 on HEK293 cells (human, UniProt P31785 23-369); experiment: Flow cytometry (Median-APC) on HEK293/CD132 cells; the box gives no unit, the axis is Ab conc.(nM); the curve has no upper plateau in the range shown
T6 construct: whole, on cells; also called cell surface CD132
T6 sequence (looked up): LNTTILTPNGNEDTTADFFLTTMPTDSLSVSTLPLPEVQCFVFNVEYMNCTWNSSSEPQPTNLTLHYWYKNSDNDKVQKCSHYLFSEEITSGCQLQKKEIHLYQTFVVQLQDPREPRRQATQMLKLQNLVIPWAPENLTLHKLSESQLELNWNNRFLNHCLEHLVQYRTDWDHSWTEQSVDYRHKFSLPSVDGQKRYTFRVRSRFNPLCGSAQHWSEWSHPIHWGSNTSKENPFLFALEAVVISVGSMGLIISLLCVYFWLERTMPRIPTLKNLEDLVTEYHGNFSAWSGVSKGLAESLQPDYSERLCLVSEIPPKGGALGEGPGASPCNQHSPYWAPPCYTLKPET
Procedure: as §2

[7] = target: T7, CD122/CD132 complex on HEK-Blue IL-2 cells (UniProt P14784 27-551; P31785 23-369, limits assumed); experiment: cell-based or functional assay
T7 sequence (looked up) 1: T5 sequence (looked up)
T7 sequence (looked up) 2: T6 sequence (looked up)

[8] = target: T3, recombinant human CD122; experiment: ELISA, plate coated with 1 µg/mL recombinant human CD122
Procedure: (§3) Plates were washed three times with PBST, added HRP labeled anti-human IgG secondary antibody and incubated at RT for 15 minutes, then washed 5 times with PBST. For color development, 100 μl of tetramethylbenzidine (TMB) chromogenic solution was added to each well, the reaction was quenched by 1 N HCl and absorbance at 450 nm was measured on a microplate reader. Binding signals were plotted against antibody concentration with GraphPad Prism 6.0 software and EC₅₀ values were calculated accordingly.

[9] = target: T6, human CD132 on HEK293 cells; experiment: Flow cytometry (MFI) on HEK293 cells overexpressing human CD132; the table gives no unit, the axis is Fab conc.(nM); the curve has no upper plateau in the range shown
Procedure: as §2

[10] = target: T4, recombinant human CD132; experiment: ELISA, plate coated with 1 µg/mL recombinant human CD132
Procedure: as §3

[11] = target: T5, human CD122 on HEK293 cells; experiment: Flow cytometry (MFI) on HEK293 cells overexpressing human CD122; the table gives no unit, the axis is Fab conc.(nM)
Procedure: as §2

[12] = target: T6, human CD132 on HEK293 cells; experiment: Flow cytometry (MFI) on HEK293 cells overexpressing human CD132; the table gives no unit, the axis is Fab conc.(nM)
Procedure: as §2

Kd [1]: 91.6 nM
koff [1]: 0.00697 s⁻¹
kon [1]: 76100 M⁻¹ s⁻¹
Kd [2]: 10.6 nM
koff [2]: 0.000286 s⁻¹
kon [2]: 27000 M⁻¹ s⁻¹
Kd [3]: 17.1 nM
koff [3]: 0.00107 s⁻¹
kon [3]: 62700 M⁻¹ s⁻¹
Kd [4]: 9.02 nM
koff [4]: 0.000339 s⁻¹
kon [4]: 37500 M⁻¹ s⁻¹
EC50 [5]: 5.27 nM
EC50 [6]: 17.8 nM
EC50 from SEAP reporter gene assay [7]: 0.19 nM
B1: huFIT2019-86b-51 (bispecific antibody, human IgG1, kappa, L234A L235A)
chain 1: not shown
chain 2: EVQLVQSGAEVKKPGASVKVSCKASGYTFTDYVISWVRQATGQGLEWMGEIYPGDAQTYYNEMFKGRVTMTRDTSISTAYMELSSLRSEDTAVYYCARGSYTYDNYAMDFWGQGTTVTVSSASTKGPSVFPLAPSSKSTSGGTAALGCLVKDYFPEPVTVSWNSGALTSGVHTFPAVLQSSGLYSLSSVVTVPSSSLGTQTYICNVNHKPSNTKVDKKVEPKSC
chain 3: not shown
notes: also called huFIT2019-8b-51

EC50 [8]: 0.324 nM
EC50 [9]: 75.6 nM
EC50 [10]: 0.662 nM
EC50 [11]: 2.2 nM
EC50 from SEAP reporter gene assay [7]: 0.125 nM
B2: FIT2019-86b (bispecific antibody, human IgG1, kappa, L234A L235A)
chain 1: not shown
chain 2: QVQLQQSGPELVKPGASVKMSCKASGYRFSDYVISWVKQRSGQGLEWIGEIYPGDGNTYYNEMFKGRATLTADKSPNTAYMKLSSLTSEDSALYFCARGSYTYDNYAMDFWGQGTSVTVSSASTKGPSVFPLAPSSKSTSGGTAALGCLVKDYFPEPVTVSWNSGALTSGVHTFPAVLQSSGLYSLSSVVTVPSSSLGTQTYICNVNHKPSNTKVDKKVEPKSC
chain 3: DIQMTQTPSSLSASLGDRVTISCRASQDISNYLNWYQQKPDGTVKLLIYYKSRLHSGVPSRFSGSGSGTEYSLTINNLEQEDFATYFCHQGHTIPFTFGSGTKLEIKRTVAAPSVFIFPPSDEQLKSGTASVVCLLNNFYPREAKVQWKVDNALQSGNSQESVTEQDSKDSTYSLSSTLTLSKADYEKHKVYACEVTHQGLSSPVTKSFNRGEC
notes: FIT-Ig with mouse V domains of CD122-mAb77 (outer Fab) and CD132-mAb17 (inner Fab), human constant domains; also called anti-CD122/CD132 FIT2019-86b

EC50 [11]: 1.63 nM
EC50 [12]: 11.4 nM
B3: Duo2019-86b (bispecific antibody, human IgG1, kappa, L234A L235A)
heavy 1: EVQLQQPGSELVRPGASVKLSCKASGYTFTSYWMHWMKQRPGQGLEWIGHIYLGGGATNYAEKFRSKATLTADTSSSTAYMQLSSLTSEDSAVYYCTRSQPYYYGMDSWGQGTSVTVSSASTKGPSVFPLAPSSKSTSGGTAALGCLVKDYFPEPVTVSWNSGALTSGVHTFPAVLQSSGLYSLSSVVTVPSSSLGTQTYICNVNHKPSNTKVDKKVEPKSCDKTHTCPPCPAPEAAGGPSVFLFPPKPKDTLMISRTPEVTCVVVDVSHEDPEVKFNWYVDGVEVHNAKTKPREEQYNSTYRVVSVLTVLHQDWLNGKEYKCKVSNKALPAPIEKTISKAKGQPREPQVYTLPPSREEMTKNQVSLTCLVKGFYPSDIAVEWESNGQPENNYKTTPPVLDSDGSFLLYSKLTVDKSRWQQGNVFSCSVMHEALHNHYTQKSLSLSPGK
light 1: B2 chain 3
heavy 2: QVQLQQSGPELVKPGASVKMSCKASGYRFSDYVISWVKQRSGQGLEWIGEIYPGDGNTYYNEMFKGRATLTADKSPNTAYMKLSSLTSEDSALYFCARGSYTYDNYAMDFWGQGTSVTVSSASTKGPSVFPLAPSSKSTSGGTAALGCLVKDYFPEPVTVSWNSGALTSGVHTFPAVLQSSGLYSLSSVVTVPSSSLGTQTYICNVNHKPSNTKVDKKVEPKSCDKTHTCPPCPAPEAAGGPSVFLFPPKPKDTLMISRTPEVTCVVVDVSHEDPEVKFNWYVDGVEVHNAKTKPREEQYNSTYRVVSVLTVLHQDWLNGKEYKCKVSNKALPAPIEKTISKAKGQPREPQVYTLPPSREEMTKNQVSLTCLVKGFYPSDIAVEWESNGQPENNYKTTPPVLDSDGSFFLYSRLTVDKSRWQQGNVFSCSVMHEALHNHYTQKSLSLSPGK
light 2: DVLMTQTPLSLPVSLGDQASISCRSSQNIVHSNGNTYLEWYLQKPGQSPKLLIYKVSNRFSGVPDRFSGSGSGTDFTLKISRVEAEDLGLYYCFQGSHIPWTFGGGTKLEIKRTVAAPSVFIFPPSDEQLKSGTASVVCLLNNFYPREAKVQWKVDNALQSGNSQESVTEQDSKDSTYSLSSTLTLSKADYEKHKVYACEVTHQGLSSPVTKSFNRGEC
notes: 1+1 asymmetric IgG1 made by Fab-arm exchange; printed both as Duo2019-86 and Duo2019-86b
